Measured values published in a protein production outcome set (Wang et al. 2014).

Experiment: label from the status in PepcDB records

Sequence	protein production
MTGKGQGGSWVPGVVSATDRGNFHASPTTATVLDIIGRILRAPLSATDTEIETALAQVADACSADVAQVCRAGTTGPLEPIHSWVRDGHIVLNIQDLCKFCPGSDQTGPVMLRDLKDLPEGPARDRLAGMELRSLVAVPMLRHGVLAGRVLLGWQTASSDLRPEDLAALQSLAEAMHAAAERRESERLTTEAAAALQEDRLLLESILRTSTSAILAFDADARIVFANDEAAALLGTDANRLPGCTLEGVGCRLLSREGEPLPPEALPVARAIAEGQTLRDLHHVLMAADGRQRILSINAAPVAAGAATAVRVVATIDDVTGQVSADSALRTALAEAHQLAFFDPLTGLYNRRGIVEVLRDCLQTCAREKAFLSLLYIDLDGMRQVNGTRGHWLGDRVLQALGARLDNLRQDGGDLGRISADEFVLTCGETHPDAAGAVAAAEAEAQRILESLREPFVVDGLTLEVTASIGLAAISAEDSVEGLLKGVDLAVMAAKAAGGDRACAYRADMEQDMVGRVALAQELREAIRRDEFRIYFEPMVSLGETGLEIVGQEALIRWEHPQRGLLAPIAFIPFAEETGFIRDIDRWVLRAAAQELARWAEDPARRHLGVSINISSAQFLSEEFGQMVREVLDETGVDPTRIELEVTEGTLLSNLGLARTTMMDLRSLGISIALDDFGTGFSSLSYLRDLPVDVLKIDRSFLGGLSDSKANRTILEGIIGLASGLGVALVAEGVETPAQFAWLRAKGCRTFQGYLFGRPVDEAQTQLAPEVSALGGHGGDRAVSGQIKG	failed
MTGNSFHVSGYGPDKAGWTRLFARDSMARRLDWPILLAAVALSLMGSLLVYSATRNRTELNQGDQYYFLTRHLLNTGIGLALMVATVWLGHRALRTAVPLLYGFSVFLILLVLTPLGSTINGAHSWIKLPGGFSLQPSEFVKITIILGMAMLLAARVDAGDRPHPDHRTVLQALGLATVPMLIVMLMPDLGSVMVMVIIVLGILLASGASNRWIFGLLGAGTAGALAVWQLGILDDYQIARFAAFANPALDPAGVGYNTNQARIAIGSGGLTGSGLFEGSQTTGRFVPEQQTDFVFTVAGEELGFLGAGLIIALLGVVLWRGCRIARSTPDLYGTVVAAGIVAWFAFQTFENVGMTLGIMPVTGLPLPFVSYGGSSMFAVWIAVGLLQSITVQRPMSA	failed
MTGQTQGKAVIARERISFWGGFDPQTGRIVDPYSSLRGRDISDCVLILLSSKGSSGTSGMLSLATRAGHAPAAMIQVEMDPVTVMGCLVNNIPLLQASGFDPFEQIQDGDLVRIDGENGTITLTPGQALEHHHHHH	failed
MTGRIVHFEIPFDDGDRARAFYRDAFGWAIAEIPDMDYSMVTTGPVGESGMPDEPGYINGGMMQRGEVTTPVVTVDVESIESALERIESLGGKTVTGRTPVGNMGFAAYFTDSEGNVVGLWETAR	not failed
MTGTYTELIEGSERLSGLTDVDEVIKDLSRLLRKLVKTRWIAVYFFDRERRDFAPARSTGLPASFLPVFREMPLAPDKIPLLKSMLRKRQHLMLTDPGSSDLLTPKLRKLLRNLCVLAVPMVVRTQVIGAVFMARTRDNPPFSDAETAIIRDLVSHAALVVSHMQLFDE	not failed
MTGVSDIQEAVAQIKAAGPSKPRLARDPVNQPMINNWVEAIGDRNPIYVDDAAARAAGHPGIVAPPAMIQVWTMMGLGGVRPKDDPLGPIIKLFDDAGYIGVVATNCEQTYHRYLLPGEQVSISAELGDVVGPKQTALGEGWFINQHIVWQVGDEDVAEMNWRILKFKPAGSPSSVPDDLDPDAMMRPSSSRDTAFFWDGVKAHELRIQRLADGSLRHPPVPAVWQDKSVPINYVVSSGRGTVFSFVVHHAPKVPGRTVPFVIALVELEEGVRMLGELRGADPARVAIGMPVRATYIDFPDWSLYAWEPDE	failed
MTHATSTETIHYVNEDGDQVFEDGGGKLDFTRTVTIDDVTNEVVEYGEWTPVTDDEFAAVTSPDKDGYTPDTSEVAAQKPDMTDGPDGTVKDVEVTVTYTANPAVATITYVDDDENGKLEHHHHHH	failed
MTHKVAFSFADGKTLFFPVKANEILLDAALRNGIKIPLDCREGVCGTCQGRCESGQYSQDYVDEEALSPQDLEQRKMLTCQTRVQSDAAFYFDFDSSLCHSADPVQLQGSVIDVRQVSESTAILHLDLGGHQAPLDFLPGQYARLSIPGTGTSRAYSFANRPAADNQLQFLIRLLPDGVMSNYIRERCLVGDTLQLEAPLGAFYLRQISRPLILVAGGTGLSALLAMLEQIVEQGCQQPVHLYYGVRHSRDLCELERIQAHGERLADFRFTPVISDANPDWPGKRGYISEHFDSSELRDQDTDMYVCGPPPMVDSIRIWLQEQQLNRVQLYYERFTESNI	failed
MTHVRIVMVNTTLPANIGSALRAMKTMGLSQLVLVAPKTYPHPDIDALAAGAQDLVEKIKIVDTLEQAIQDCHIVFGTSARSRTIPWPLLDARPAAELSMDAVITRQQEIAIVFGREDRGLTNEELALANYHLTIPVNTDYGVLNVAQAIQVICYEMRMATLAQVQNDQASSDSQKMQVTEKIEMDWDEPLVNHQQMEEFYPHLEKMLVDIEFLDPQNPRLLPLRLRRLFGRAQLDRMEYHLLRGIFSRVQALSHGKWKKTALDKEEQSDV	failed
MTIAPTTLLLFAATALAELVGCYLPYLWLRKGGSVWLLLPTALSLAVFVWLLSLHPEASGRVYAAYGGVYIASALLWLWWVDGVTPTRWDLLGAACCLLGMAVIMFSPRSA	failed
MTIAVDFDGTIVEHRYPRIGEEIPFAVETLKLLQQEKHRLILWSVREGELLDEAIEWCRARGLEFYAANKDYPEEERDHQGFSRKLKADLFIDDRNVGGIPDWGIIYEMIKEKKTFADIYSQQREENTSQKKKRKWLPF	not failed
MTIGRAKVYATLSKIFYHLFYDEAIPKDCREIIEKFGEIDFNLRSVLVRELRGSVLIKDMPQSLAEVYESVMKDFYERYGFQASELHADHIAVELAFMSKLVEREISLAQQMKEEELYKIRAAQHRFIKAHLQPLVKNLPSAPLLNFVRDFVREDAKYLYSSLVGEKNEGADNN	not failed
MTIKALFWDIGGVLLTNGWDREQRADVAQRFGLDTDDFTERHRLAAPELELGRMTLAEYLEQVVFYQPRDFTPEDFRAVMEEQSQPRPEVLALARDLGQRYRMYSLNNEGRDLNEYRIRTFGLGEFLLAFFTSSALGVMKPNPAMYRLGLTLAQVRPEEAVMVDDRLQNVQAARAVGMHAVQCVDAAQLREELAALGVR	not failed
MTIPLIIGGVLLAILILLILVFITKYRTVGPDEALIVTGNWLGGGKNVVTTDDGKKIKIIRGGGTFVVPIMQRAEPLSLLNYKLEVGTRDTYTKQGVPVTVNGVSIIKVGSTIEEVSTAAEQYLGKETEELKVEAKEVLEGHLRAILSSMTVEDAYSNREQFAQKVHEVASTDLKKMGLRIVSFTIKEIMDKNGYLDALGQPQIATVKRDATIANAEREKEARIEKARAEKEAKEAEYQRDAQIAEAEKHKELKVQSYKREQEQARADADLSYELQQAKAQQGVTEEQMRVKIIEREKQIELEEKEIARREKQYDAEVKKKADADRYAVEQSAEAEKVKQIKKADADQYKIEAEARARAEEVRVEGLAKAEIEKAQGQAKAEVQKAQGTAEADVIRLKGLAEAEAKQKIAEAFELYGQAAIMDMVLKMLPSYAKEVASPLSNIDKITVVDTGGGGKNSGAGKVAGYATDLMATMQETLKASSGIDLKELLEGFAGKGAVQQLSSDKPVVSVVEDKKKEVEKDKE	failed
MTIQDYMLETPVRMREIISNADSLFNEVKRTNLKKIIITGSGTSYHSGVQVQPYLQNLLDIDVVKMYPFMITEDTFKFDNENTLVVGVSQGGSSYSTYNAMKLAEDKGCKIASMAGCKNALIDEISDYILTVNCGEEKSGAKTKGYYCTKLNLMLLGLQIAREKGIISSEKYNEEINKILDAINRFEAVYKLSKQWIERNKEKLVNSKEIRIIGHSDIYGDTLEAALKLLETMRIPVTGYEFEEFIHGIYNAINSDSTIFILDTGKEPRVTKMIDVLSGWTENVFAIGRDVTENDKNLKIDITDNPYYQTFNFIVPIQLICGEIPTLRGVDPSVPKDTRFHMKLGSKKLNK	not failed
